Values of other authors as cited in patent US20090098130A1, “GLUCAGON-LIKE PROTEIN-1 RECEPTOR (GLP-1R) AGONIST COMPOUNDS” (priority 2007, published 2009).

Conditions: after incubation with β-diketone

Molecule | enaminone absorbance (λmax=318 nm)
h38C2 IgG: humanized aldolase catalytic antibody h38c2 IgG1 (antibody, listed as Homo sapiens, V domains shown, (1)..(30) FR1; (1)..(23) FR1) VH: EVQLVESGGGLVQPGGSLRLSCAASGFTFSNYWMSWVRQSPEKGLEWVSEIRLRSDNYATHYAESVKGRFTISRDNSKNTLYLQMNSLRAEDTGIYYCKTYFYSFSYWGQGTLVTVSS VL: ELQMTQSPSSLSASVGDRVTITCRSSQSLLHTYGSPYLNWYLQKPGQSPKLLIYKVSNRFSGVPSRFSGSGSGTDFTLTISSLQPEDFAVYFCSQGTHLPYTFGGGTKVEIK | showed the characteristic enaminone absorbance
m38C2 IgG: mouse monoclonal aldolase antibody with a reactive lysine (antibody, listed as Mus musculus, V domains shown, (1)..(30) FR1; (1)..(23) FR1) VH: EVKLVESGGGLVQPGGTMKLSCEISGLTFRNYWMSWVRQSPEKGLEWVAEIRLRSDNYATHYAESVKGKFTISRDDSKSRLYLQMNSLRTEDTGIYYCKTYFYSFSYWGQGTLVTVSA VL: DVVMTQTPLSLPVRLGDQASISCRSSQSLLHTYGSPYLNWYLQKPGQSPKLLIYKVSNRFSGVPDRFSGSGSGTDFTLRISRVEAEDLGVYFCSQGTHLPYTFGGGTKLEIK | showed the characteristic enaminone absorbance
